These results are taken from patent publication US20190367589A1 (CYTOMX THERAPEUTICS, published 2019).

A value given as a limit tells only on which side of the number the result lay.

For assay [1], the target named is T1, human Jagged 2-Fc (R&D Systems Cat #1726-JG-050) (human, UniProt Q9Y219 27-1080, limits assumed).
T1 construct: Bought reagent; also called hJag2; h Jagged 2; not shown: Fc part
Kind of assay: BLI (Octet), Jagged-Fc on anti-human Fc tips, Fab in solution. As for the experimental part: (§1) Off rates for individual Fabs were measured using an Octet (ForteBio, Menlo Park, Calif.). […] Following a wash, the loaded tips were exposed to 25 μM Fab until binding had reached equilibrium. The tips were then removed to a fresh solution with no Fab, and the rate of Fab dissociation was measured.
On the technique in general: In BLI a coated tip is dipped into the sample, and binding shifts an interference pattern.

Assay [2] has as its target T2, murine Jagged 2-Fc (R&D Systems) (murine, UniProt Q9QYE5 24-1082, limits assumed).
T2 construct: Bought reagent, cited as ibid. although no catalogue number is printed anywhere; also called m Jagged 2; not shown: Fc part
Described as above. The method, then:
as §1

Assay [3] deals with T1, human Jagged 2-Fc (R&D Systems Cat …). Kind of assay: drawn table 'Kd (nM)' of Fab; method not stated; the legend names the matured antibody as 4D11.
Another assay deals with T3, masking moiety JS5872.
T3 peptide: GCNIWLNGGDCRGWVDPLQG
As to the kind of experiment: FACS of cells displaying the masking peptide, labelled Fab 4D11, signal normalised to expression; Fab concentration not given.

The target of the next assay is T4, masking moiety JS5877.
T4 peptide: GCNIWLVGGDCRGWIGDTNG
Described as above.

The next assay addresses T5, masking moiety JS5885.
T5 peptide: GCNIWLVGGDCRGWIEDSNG
Described as above.

Another assay concerns the target T6, masking moiety JS5887.
T6 peptide: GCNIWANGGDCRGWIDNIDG
The assay is described as above.

A further assay deals with T7, JS5340.
T7 construct: also called masking moiety JS5340
T7 peptide displayed on cells: CNLWLHGGDCRGWQG
Kind of assay: FACS of cells displaying the peptide, biotinylated anti-Jagged Fab at 1, 10 and 100 nM, streptavidin-PE, normalised to expression with yPet-MONA.

Another assay has as its target T8, JS5347.
T8 construct: also called masking moiety JS5347
T8 peptide displayed on cells: CNIWGPSVDCGALLG
The description is as above.

Another assay has as its target T9, JS5358.
T9 construct: also called masking moiety JS5358
T9 peptide displayed on cells: CNIWVNGGDCRSFEG
The description is as above.

For another assay, the target named is T10, masking moiety JS5342.
T10 peptide: CNIWLVGGDCRGWQG
Described as above.

Assay [4] concerns the target T11, human Jagged 1-Fc (extracellular domain of human Jagged 1 fused to the Fc portion of human IgG1); R&D Systems … (human, UniProt P78504 34-1067).
T11 construct: extracellular domain; Bought reagent; also called hJag1; h Jagged 1; not shown: Fc portion of human IgG1
Kind of assay: phage ELISA, ligand coated. From the text:
(§2) Jagged ligands were adsorbed to the wells of a 96-well ELISA plate, each ligand on a separate plate. Phage were applied to correlative wells on each plate and allowed to bind. Bound phage were visualized with an anti-M13-HRP conjugate and developed with the chromogenic substrate TMB. Also shown are the SEQ ID NOs for the each of these isolates.
(In general: ELISA stands for enzyme-linked immunosorbent assay.)

The target in assay [5] is T1, human Jagged 2-Fc (R&D Systems Cat …). Kind of assay: phage ELISA, ligand coated.
Description: as §2

The target of assay [6] is T12, rat Jagged 1-Fc (R&D Systems Cat #599-JG-100) (rat, UniProt Q63722 34-1067, limits assumed).
T12 construct: Bought reagent; also called rJag1; rJAG1; not shown: Fc part
As to the kind of experiment: phage ELISA, ligand coated.
Description: as §2

The target in assay [7] is T11, human Jagged 1-Fc (extracellular domain …). As to the kind of experiment: ELISA, ligand-Fc coated, anti-human IgG Fab-specific HRP. As for the experimental part: (§3) Bound antibody was visualized with an anti-human IgG-HRP conjugate, Fab specific, (Sigma, St Louis, Mo.; Cat # A0293-1ML) and developed with the chromogenic substrate TMB.
The target in assay [8] is T1, human Jagged 2-Fc (R&D Systems Cat …). The description is as above. As for the experimental part: as §3

T1 sequence (Q9Y219 27-1080 limits assumed): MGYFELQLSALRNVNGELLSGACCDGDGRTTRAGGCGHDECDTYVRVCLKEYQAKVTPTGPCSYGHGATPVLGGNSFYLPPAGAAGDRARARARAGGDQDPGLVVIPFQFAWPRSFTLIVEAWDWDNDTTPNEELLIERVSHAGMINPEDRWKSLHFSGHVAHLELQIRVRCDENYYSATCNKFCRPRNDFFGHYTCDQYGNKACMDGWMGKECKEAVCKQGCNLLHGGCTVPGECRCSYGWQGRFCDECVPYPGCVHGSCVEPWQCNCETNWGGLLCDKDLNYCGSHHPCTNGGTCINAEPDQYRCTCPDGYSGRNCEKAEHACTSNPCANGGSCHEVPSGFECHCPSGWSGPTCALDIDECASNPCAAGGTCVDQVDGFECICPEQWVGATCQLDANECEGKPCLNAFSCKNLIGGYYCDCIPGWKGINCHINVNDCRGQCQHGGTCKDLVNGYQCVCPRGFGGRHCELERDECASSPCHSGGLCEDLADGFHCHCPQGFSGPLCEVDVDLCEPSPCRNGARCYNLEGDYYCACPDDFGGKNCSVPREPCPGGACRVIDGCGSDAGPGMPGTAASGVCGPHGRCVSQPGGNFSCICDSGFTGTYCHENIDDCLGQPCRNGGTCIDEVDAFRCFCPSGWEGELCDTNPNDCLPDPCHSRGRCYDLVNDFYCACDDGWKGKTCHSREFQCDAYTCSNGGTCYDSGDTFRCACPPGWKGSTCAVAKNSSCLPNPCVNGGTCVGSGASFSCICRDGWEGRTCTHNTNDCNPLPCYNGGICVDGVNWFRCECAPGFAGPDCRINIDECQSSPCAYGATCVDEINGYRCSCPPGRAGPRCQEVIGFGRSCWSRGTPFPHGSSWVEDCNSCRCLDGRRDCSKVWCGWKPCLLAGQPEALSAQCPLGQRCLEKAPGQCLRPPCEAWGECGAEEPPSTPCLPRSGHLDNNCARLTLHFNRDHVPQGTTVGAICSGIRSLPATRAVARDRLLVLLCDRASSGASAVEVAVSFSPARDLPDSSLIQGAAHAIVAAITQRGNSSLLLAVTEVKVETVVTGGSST
T2 sequence (Q9QYE5 24-1082 limits assumed): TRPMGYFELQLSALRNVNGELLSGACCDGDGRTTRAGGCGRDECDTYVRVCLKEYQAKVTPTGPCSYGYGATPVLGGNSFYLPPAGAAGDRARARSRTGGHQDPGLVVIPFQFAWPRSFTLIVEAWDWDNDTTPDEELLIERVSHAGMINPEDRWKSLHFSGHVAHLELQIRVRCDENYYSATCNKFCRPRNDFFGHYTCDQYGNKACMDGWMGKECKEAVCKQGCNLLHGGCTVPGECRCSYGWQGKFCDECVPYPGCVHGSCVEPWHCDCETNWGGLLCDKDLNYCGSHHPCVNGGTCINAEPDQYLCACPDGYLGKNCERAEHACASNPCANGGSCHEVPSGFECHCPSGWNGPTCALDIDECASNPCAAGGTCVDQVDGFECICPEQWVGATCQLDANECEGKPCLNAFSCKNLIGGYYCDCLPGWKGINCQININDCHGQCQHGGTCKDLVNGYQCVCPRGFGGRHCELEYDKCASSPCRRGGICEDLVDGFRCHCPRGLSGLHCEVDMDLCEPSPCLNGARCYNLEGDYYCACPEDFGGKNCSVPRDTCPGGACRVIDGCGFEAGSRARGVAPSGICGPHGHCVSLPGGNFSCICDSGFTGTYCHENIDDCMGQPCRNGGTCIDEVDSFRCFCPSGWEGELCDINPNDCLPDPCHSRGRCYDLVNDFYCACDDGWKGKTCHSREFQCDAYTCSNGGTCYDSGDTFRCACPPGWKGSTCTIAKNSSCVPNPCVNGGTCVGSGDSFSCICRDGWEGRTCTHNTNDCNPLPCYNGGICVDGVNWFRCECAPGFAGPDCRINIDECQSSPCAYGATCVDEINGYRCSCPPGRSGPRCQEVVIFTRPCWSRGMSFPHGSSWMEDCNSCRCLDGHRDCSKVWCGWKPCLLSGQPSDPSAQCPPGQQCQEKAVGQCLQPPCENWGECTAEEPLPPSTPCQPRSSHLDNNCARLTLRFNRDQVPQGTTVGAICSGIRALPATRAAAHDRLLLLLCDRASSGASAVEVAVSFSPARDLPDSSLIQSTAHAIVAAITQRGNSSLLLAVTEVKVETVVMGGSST

B1: 4D11 Fab (Fab, V domains shown)
VH: EVQLLESGGGLVQPGGSLRLSCAASGFTFSSYAMSWVRQAPGKGLEWVSSIDPEGRQTYYADSVKGRFTISRDNSKNTLYLQMNSLRAEDTAVYYCAKDIGGRSAFDYWGQGTLVTVSS
VL: DIQMTQSPSSLSASVGDRVTITCRASQSISSYLNWYQQKPGKAPKLLIYAASSLQSGVPSRFSGSGSGTDFTLTISSLQPEDFATYYCQQTVVAPPLFGQGTKVEIKR
notes: C-terminally His-tagged Fab from the periplasm of E. coli; also called anti-Jagged Fab 4D11; Fab 4D11
A word on the koff: it is the rate constant with which the complex falls apart. The low end stands for a long-lived complex, the high end for a short-lived complex. By Kd is commonly meant the free concentration of one partner at which half of the binding sites on the other are occupied at equilibrium, for simple one-to-one binding. As to B1, the figures for the koff in [1] and in [2] were 0.00045 s⁻¹ and 0.00042 s⁻¹, respectively. Besides, the Kd in assay [3] was under 1 nM. In addition, the binding result in the assay with masking moiety JS5872, with masking moiety JS5877, in the assay with masking moiety JS5885, in the assay with masking moiety JS5887, with JS5340 and with JS5347 was “binds” in each case. The binding result with JS5358 and in the assay with masking moiety JS5342 was “binds” each time.

B2: 346.24 (Fab, V domains shown)
VH: EVQLLESGGGLVQPGGSLRLSCAASGFTFSSYAMSWVRQAPGKGLEWVSSIEEMGWQTLYADSVKGRFTISRDNSKNTLYLQMNSLRAEDTAVYYCAKSAAAFDYWGQGTLVTVSS
VL: DIQMTQSPSSLSASVGDRVTITCRASQSISSYLNWYQQKPGKAPKLLIYAASSLQSGVPSRFSGSGSGTDFTLTISSLQPEDFATYYCQQSVVAPLTFGQGTKVEIKR
notes: also called Lc24/Hc24
On to B2, for which the binding result in assay [4] and in [5] was “binds” throughout.

B3: 346.8 (Fab, V domains shown)
VH: EVQLLESGGGLVQPGGSLRLSCAASGFTFSSYAMSWVRQAPGKGLEWVSSIEQMGWQTYYADSVKGRFTISRDNSKNTLYLQMNSLRAEDTAVYYCAKHIGRTNPFDYWGQGTLVTVSS
VL: DIQMTQSPSSLSASVGDRVTITCRASQSISSYLNWYQQKPGKAPKLLIYAASSLQSGVPSRFSGSGSGTDFTLTISSLQPEDFATYYCQQSVVAPLTFGQGTKVEIKR
notes: also called Lc8/Hc8
In the case of B3, the binding result in assay [4] and in assay [6] was “binds” throughout.

B4: anti-Jagged 13 IgG (antibody, V domains shown)
VH: EVQLLESGGGLVQPGGSLRLSCAASGFTFSSYAMSWVRQAPGKGLEWVSSIETQGPTTLYADSVKGRFTISRDNSKNTLYLQMNSLRAEDTAVYYCAKTSSAFDYWGQGTLVTVSS
VL: DIQMTQSPSSLSASVGDRVTITCRASQSISSYLNWYQQKPGKAPKLLIYASSLQSGVPSRFSGSGSGTDFTLTIGSLQPEDFATYYCQQNVATPLTFGQGTKVEIKR
notes: Fully human IgG made from the variable domains of ScFv Jagged 13; also called anti-Jag 13
Take B4: the “affinity (ELISA)” value in [7] and in [8] was over 30 nM each time.
